Assay results: paper PMC9884297, “Iron-sulfur clusters are involved in post-translational arginylation” (Nature Communications, 2023)

Target: the molecule itself
Experiment: SEC; 120 mL gel filtration column, 25 mmol/L Tris pH 7.5, 100 mmol/L NaCl, 1 mmol/L TCEP, 0.35 mol/L glycerol; apparent oligomeric state

B1: Arg tRNA synthetase from E. coli (strain K12) (enzyme, UniProt P11875 1-577, looked up)
chain: MNIQALLSEKVRQAMIAAGAPADCEPQVRQSAKVQFGDYQANGMMAVAKKLGMAPRQLAEQVLTHLDLNGIASKVEIAGPGFINIFLDPAFLAEHVQQALASDRLGVATPEKQTIVVDYSAPNVAKEMHVGHLRSTIIGDAAVRTLEFLGHKVIRANHVGDWGTQFGMLIAWLEKQQQENAGEMELADLEGFYRDAKKHYDEDEEFAERARNYVVKLQSGDEYFREMWRKLVDITMTQNQITYDRLNVTLTRDDVMGESLYNPMLPGIVADLKAKGLAVESEGATVVFLDEFKNKEGEPMGVIIQKKDGGYLYTTTDIACAKYRYETLHADRVLYYIDSRQHQHLMQAWAIVRKAGYVPESVPLEHHMFGMMLGKDGKPFKTRAGGTVKLADLLDEALERARRLVAEKNPDMPADELEKLANAVGIGAVKYADLSKNRTTDYIFDWDNMLAFEGNTAPYMQYAYTRVLSVFRKAEIDEEQLAAAPVIIREDREAQLAARLLQFEETLTVVAREGTPHVMCAYLYDLAGLFSGFYEHCPILSAENEEVRNSRLKLAQLTAKTLKLGLDTLGIETVERM
notes: Arg tRNA synthetase, E. coli strain K12, UniProt P11875; A TEV-protease cleavage site (ENLYFQS) lies between the protein and the C-terminal (His)6 tag (pET-21a(+), NdeI/XhoI); also called EcArgRS; ArgRS
B1 was tested, and the “stoichiometry N” value was 6.
